According to patent publication US20230312722A1 (NONA BIOSCIENCES SUZHOU, published 2023):

What was measured:
[1] = target: T1, B7-H4 (Acro Biosystems, #B74-H82E2) (UniProt Q7Z7D3 29-258); assay: BLI epitope competition; 1st Ab = row; competitor (2nd Ab) PR002421; inhibition of the 2nd Ab signal
T1 construct: Bought protein; also called B7-H4 captured on SA sensor
T1 sequence (looked up): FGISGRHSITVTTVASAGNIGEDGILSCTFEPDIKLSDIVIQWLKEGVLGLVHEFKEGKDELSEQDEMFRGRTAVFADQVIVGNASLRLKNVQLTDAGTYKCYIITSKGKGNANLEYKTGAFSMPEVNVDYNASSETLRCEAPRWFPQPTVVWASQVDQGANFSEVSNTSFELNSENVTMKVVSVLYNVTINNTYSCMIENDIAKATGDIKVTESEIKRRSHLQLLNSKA
Procedure: Step one, acquisition of 100% signal of antibodies: B7-H4 (Acro Biosystems, #B74-H82E2-200 μg) was captured at a capture height of 0.25 nm using an SA sensor (Fortebio, #18-5019). The sensor was equilibrated in a buffer for 120 s and then immersed in each antibody diluted to 100 nM for 240 s, and the final signal of the antibody binding to B7-H4 was recorded as the 100% signal of the antibody. Step two, epitope competition experiment: B7-H4 was captured using an SA sensor at a capture height of 0.25 nm. The sensor was immersed in a primary antibody (at a concentration of 100 nM) for 240 s, and then the SA sensor was immersed in a mixture of the primary and secondary antibodies (both at a final concentration of 100 nM) for 240 s, and the difference in signals after immersion of the sensor in the antibody mixture was recorded as the signal of the antibody as the secondary antibody. The inhibition rate was calculated according to the following formula: […]

[2] = target: T2, human B7H4 on the cell surface (human, UniProt Q7Z7D3 25-282); assay: FACS on MDA-MB-468 cells; in the drawn table the number stands under the head 'EC50 (nM)' (the two heads are interchanged)
T2 construct: whole, on cells; also called CHOK1/hu B7H4; B7H4 on SK-BR-3
T2 sequence (looked up): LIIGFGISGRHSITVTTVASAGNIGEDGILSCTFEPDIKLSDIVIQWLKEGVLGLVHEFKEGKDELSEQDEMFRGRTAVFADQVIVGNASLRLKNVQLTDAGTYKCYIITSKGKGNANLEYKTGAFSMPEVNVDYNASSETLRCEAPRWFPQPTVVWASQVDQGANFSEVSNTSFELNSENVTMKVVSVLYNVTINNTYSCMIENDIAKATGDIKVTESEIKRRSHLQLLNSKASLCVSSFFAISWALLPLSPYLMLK

[3] = target: T2, human B7H4 on the cell surface; assay: FACS, SK-BR-3 cells
Procedure: (§1) This example is intended to investigate the in vitro binding activity of anti-human B7H4 H2L2 monoclonal antibody to human/cynomolgus monkey/mouse B7H4. Antibody binding experiments at the cellular level were performed using CHOK1 cell line overexpressing human B7H4 (CHOK1/hu B7H4, Harbour BioMed), CHOK1 cell line overexpressing cynomolgus monkey B7H4 (CHOK1/cyno B7H4, Harbour BioMed), CHOK1 cell line overexpressing mouse B7H4 (CHOK1/m B7H4, Harbour BioMed) and SK-BR-3 cell line (ATCC® HTB-30) highly expressing human B7H4. Briefly, CHOK1/hu B7H4 cells, CHOK1/cyno B7H4 cells, CHOK1/m B7H4 cells or SK-BR-3 cells were digested and resuspended with PBS containing 2% BSA. The cell density was adjusted to 1×10⁶ cells/mL. The cells were seeded in a 96-well V-bottom plate (Corning, #3894) at 100 μL/well, followed by the addition of test antibodies diluted in a 3-fold concentration gradient of 2 times the final concentration, each at 100 μL/well. The cells were incubated at 4° C. for 2 h away from light. Thereafter, the cells in each well were rinsed twice with 100 μL of pre-cooled PBS containing 2% BSA, and centrifuged at 500 g at 4° C. for 5 min, and then the supernatant was discarded. […] Finally, the cells in each well were resuspended with 200 μL of pre-cooled PBS containing 2% BSA, and the fluorescence signal values were read using an ACEA Novocyte3000 flow cytometer.

[4] = target: T3, cynomolgus monkey B7H4 on the cell surface (cynomolgus monkey, UniProt A0A2K5U6P5 25-282); assay: FACS, CHOK1/cyno B7H4 cells
T3 construct: whole, on cells; also called CHOK1/cyno B7H4
T3 sequence: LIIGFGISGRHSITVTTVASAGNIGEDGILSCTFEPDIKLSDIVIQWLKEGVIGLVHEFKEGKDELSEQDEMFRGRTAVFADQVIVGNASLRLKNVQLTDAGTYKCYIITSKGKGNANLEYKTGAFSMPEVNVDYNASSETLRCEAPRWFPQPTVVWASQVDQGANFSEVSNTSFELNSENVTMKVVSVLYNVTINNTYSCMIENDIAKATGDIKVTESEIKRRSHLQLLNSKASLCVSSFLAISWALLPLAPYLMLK
Procedure: as §1

[5] = target: T2, human B7H4 on the cell surface; assay: FACS on MDA-MB-468 cells; in the drawn table the number stands under the head 'Maximum MFI' (the two heads are interchanged); the head says nM, the axis of the curve µg/mL
[6] = target: T2, human B7H4 on the cell surface; assay: FACS, SK-BR-3 cells; remark: listed apart in the source
Procedure: This example is intended to investigate the in vitro binding activity of anti-human B7H4 H2L2 monoclonal antibody to human/cynomolgus monkey/mouse B7H4. Antibody binding experiments at the cellular level were performed using CHOK1 cell line overexpressing human B7H4 (CHOK1/hu B7H4, Harbour BioMed), CHOK1 cell line overexpressing cynomolgus monkey B7H4 (CHOK1/cyno B7H4, Harbour BioMed), CHOK1 cell line overexpressing mouse B7H4 (CHOK1/m B7H4, Harbour BioMed) and SK-BR-3 cell line (ATCC® HTB-30) highly expressing human B7H4. Briefly, CHOK1/hu B7H4 cells, CHOK1/cyno B7H4 cells, CHOK1/m B7H4 cells or SK-BR-3 cells were digested and resuspended with PBS containing 2% BSA. The cell density was adjusted to 1×10⁶ cells/mL. The cells were seeded in a 96-well V-bottom plate (Corning, #3894) at 100 μL/well, followed by the addition of test antibodies diluted in a 3-fold concentration gradient of 2 times the final concentration, each at 100 μL/well. The cells were incubated at 4° C. for 2 h away from light. Thereafter, the cells in each well were rinsed twice with 100 μL of pre-cooled PBS containing 2% BSA, and centrifuged at 500 g at 4° C. for 5 min, and then the supernatant was discarded. Then 100 μL of a fluorescent secondary antibody (Alexa Fluor 488-conjugated AffiniPure Goat Anti-Human IgG, Fcγ Fragment Specific, Jackson, #109-545-098, 1:500 diluted) was added to each well. The plate was incubated away from light at 4° C. for 1 h. The cells in each well were washed twice with 100 μL of pre-cooled PBS containing 2% BSA, and centrifuged at 500 g at 4° C. for 5 minutes, and then the supernatant was discarded. Finally, the cells in each well were resuspended with 200 μL of pre-cooled PBS containing 2% BSA, and the fluorescence signal values were read using an ACEA Novocyte3000 flow cytometer.

[7] = target: T2, human B7H4 on the cell surface; assay: FACS on MDA-MB-468 cells

- Competitive inhibition rate (%) [1]: 1.97%
- Maximum MFI [2]: 254000
- EC50 [3]: 1.2 nM
- Maximum MFI [3]: 266000 MFI
- EC50 [4]: 2.1 nM
- Maximum MFI [4]: 1.99e+06 MFI
- EC50 [5]: 0.194 nM
- EC50 [6]: 1.18 nM
- Maximum MFI [6]: 316000 MFI
- EC50 (read off the curve) [7]: ~0.2 µg/mL
B1: Control antibody 1 (PR000157) (antibody, V domains shown)
VH: EVQLVQSGAEVKKPGASVKVSCKASGYTFTSYWIGWVRQAPGQGLEWIGDIYPGGGYTNYNEKFKGRVTITRDTSTSTAYLELSSLRSEDTAVYYCARLAGSSYRGAMDSWGQGTLVTVSS
VL: DIQMTQSPSSLSASVGDRVTITCKASQGFNKYVAWYQQKPGKAPKLLIYYTSTLQPGVPSRFSGSGSGRDYTLTISSLQPEDFATYYCLQYGDLLYAFGQGTKVEIKR
notes: Anti-B7H4 IgG1 control antibody from WO2016040724A1; also called 1D11.v1.9varC2
